Substitutions are numbered along the chain they refer to.
B1: H135 (Fc fusion)
chain (part 1 of 2): QVQLQESGGGSVQAGGSLKLTCAASGYIFNSCGMGWYRQSPGRERELVSRISGDGDTWHKESVKGRFTISQDNVKKTLYLQMNSLKPEDTAVYFCAVCYNLETYWGQGTQVTVSS
chain (part 2 of 2): APEAEGAPSVFLFPPKPKDTLMISRTPEVTCVVVDVSHEDPEVKFNWYVDGVEVHNAKTKPREEQYNSTYRVVSVLTVLAQDWLNGKEYKCKVSNKALPSSIEKTISKAKGQPREPQVYTLPPSREEMTKNQVSLTCLVKGFYPSDIAVEWESNGQPENNYKTTPPVLDSDGSFFLYSKLTVDKSRWQQGNVFSCSVMHEALHNHYTQKSLSLSPG
notes: not shown: hinge; copies: 2 + 2
B2: D134 (Fc fusion)
chain (part 1 of 2): EVQLVESGGGEVQPGGSLRLSCAASGSIFSINAMGWYRQAPGKQRELVAGFTGDTNTIYAESVKGRFTISRDNAKNTVYLQMSSLRAEDTAVYYCAADVQLFSRDYEFYWGQGTLVTVKP
chain (part 2 of 2): B1 chain (part 2 of 2) with A80H
notes: as for B1
B3: D138 (Fc fusion)
chain (part 1 of 2): B2 chain (part 1 of 2)
chain (part 2 of 2): B1 chain (part 2 of 2) with A80H, H205Q
notes: as for B1
B4: D136 (Fc fusion)
chain (part 1 of 2): B2 chain (part 1 of 2)
chain (part 2 of 2): B1 chain (part 2 of 2)
notes: as for B1
B5: H137 (Fc fusion)
chain (part 1 of 2): B1 chain (part 1 of 2)
chain (part 2 of 2): B1 chain (part 2 of 2) with A80H, H205Q
notes: as for B1
B6: Anti-FOLR1x2; Anti-DLL3x2; (GGGGS)3 tetramer (bispecific antibody)
chain (part 1 of 2): QVQLVESGGGLVQPGGSLRLSCAASGFTVSNSVMAWYRQTPGNEREFVAIINSIGITNYADSVKGRFTISRDNSKNTLYLQMNSLRAEDTAVYVCNRNFDRIYWGQGTLVTVSSGGGGSGGGGSGGGGSEVQLVESGGGEVQPGGSLRLSCAASGSIFSINAMGWYRQAPGKQRELVAGFTGDTNTIYAESVKGRFTISRDNAKNTVYLQMSSLRAEDTAVYYCAADVQLFSRDYEFYWGQGTLVTVKP
chain (part 2 of 2): not shown
notes: entry chosen by mutation status; also called bispecific tetramer GGGGSx3; not shown: hinge
B7: Anti-FOLR1x2; Anti-DLL3x2; (GGS)4 tetramer (bispecific antibody)
chain (part 1 of 2): QVQLVESGGGLVQPGGSLRLSCAASGFTVSNSVMAWYRQTPGNEREFVAIINSIGITNYADSVKGRFTISRDNSKNTLYLQMNSLRAEDTAVYVCNRNFDRIYWGQGTLVTVSSGGSGGSGGSGGSEVQLVESGGGEVQPGGSLRLSCAASGSIFSINAMGWYRQAPGKQRELVAGFTGDTNTIYAESVKGRFTISRDNAKNTVYLQMSSLRAEDTAVYYCAADVQLFSRDYEFYWGQGTLVTVKP
chain (part 2 of 2): not shown
notes: As m61 with the (GGS)4 linker; also called bispecific tetramer GGSx4; not shown: hinge

How the values were obtained:
[1] = biological target: FcγRI (biotinylated, Acro Biosystems) (UniProt P12314 16-288, biotinylated); test: BLI, biotinylated FcγR on SA sensor
Chain of FcγRI (biotinylated, Acro Biosystems) (P12314 16-288 limits assumed): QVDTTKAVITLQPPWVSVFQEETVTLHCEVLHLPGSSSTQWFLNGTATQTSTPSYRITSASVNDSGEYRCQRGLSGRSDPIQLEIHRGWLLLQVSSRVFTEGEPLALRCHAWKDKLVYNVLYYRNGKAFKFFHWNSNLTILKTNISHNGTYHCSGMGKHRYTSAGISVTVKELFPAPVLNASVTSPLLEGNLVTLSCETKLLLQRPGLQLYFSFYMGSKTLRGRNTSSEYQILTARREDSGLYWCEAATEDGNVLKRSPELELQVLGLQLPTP

[2] = biological target: FcγRIIIa (V176) (biotinylated, Acro Biosystems) (UniProt P08637 17-208, biotinylated); test: BLI, biotinylated FcγR on SA sensor
Chain of FcγRIIIa (V176) (biotinylated, Acro Biosystems) (P08637 17-208 F176V limits assumed): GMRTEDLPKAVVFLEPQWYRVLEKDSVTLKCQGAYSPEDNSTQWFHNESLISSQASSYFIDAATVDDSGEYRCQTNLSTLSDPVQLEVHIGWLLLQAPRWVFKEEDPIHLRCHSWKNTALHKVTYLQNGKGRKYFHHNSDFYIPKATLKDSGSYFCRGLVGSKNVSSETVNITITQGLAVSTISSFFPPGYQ

[3] = biological target: FcγRIIIa (F176) (biotinylated, Acro Biosystems) (UniProt P08637 17-208, biotinylated); test: BLI, biotinylated FcγR on SA sensor
Chain of FcγRIIIa (F176) (biotinylated, Acro Biosystems) (P08637 17-208 limits assumed): as the sequence (P08637 17-208 F176V limits assumed) above, with V160F counted along it

[4] = biological target: T1, FcγRIIa (H167) (biotinylated, Acro Biosystems) (UniProt P12318 36-218, biotinylated); test: BLI, biotinylated FcγR on SA sensor
T1 sequence (looked up): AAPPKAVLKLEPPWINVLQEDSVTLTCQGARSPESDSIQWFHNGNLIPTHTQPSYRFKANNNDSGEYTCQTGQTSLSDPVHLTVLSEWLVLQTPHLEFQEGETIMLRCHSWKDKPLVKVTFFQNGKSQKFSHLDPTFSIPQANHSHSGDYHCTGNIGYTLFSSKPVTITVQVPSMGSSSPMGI

[5] = biological target: T2, FcγRIIa (R167) (biotinylated, Acro Biosystems) (UniProt P12318 36-218, biotinylated); test: BLI (Octet), biotinylated FcγR on SA sensor, steady state analysis
T2 sequence (looked up): T1 sequence (looked up) with H132R

[6] = biological target: T3, FcγRIIb/c (biotinylated, Acro Biosystems) (UniProt P31994 46-217, biotinylated); test: as above
T3 sequence (looked up): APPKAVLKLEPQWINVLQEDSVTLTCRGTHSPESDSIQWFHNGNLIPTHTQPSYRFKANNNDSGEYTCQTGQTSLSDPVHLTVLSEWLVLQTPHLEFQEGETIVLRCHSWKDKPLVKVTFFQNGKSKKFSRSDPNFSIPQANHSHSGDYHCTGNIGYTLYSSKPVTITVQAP

[7] = biological target: biotinylated hFcRn (Sino Biological, Cat #: CT071-H27H-B) (human, UniProt P55899 24-297; P61769 21-119, biotinylated); test: BLI (Octet), biotinylated hFcRn on SA sensor, pH 6.0, 2:1 heterogeneous ligand model
[8] = biological target: T4, FOLR1 on cells (OVCAR3, OV-90) (UniProt P15328 25-234); test: binding to FOLR1-positive OVCAR3 cells
T4 construct: whole, on cells; also called FOLR1-positive OVCAR3 cells; FOLR1 expressing OV-90 cells
T4 sequence (P15328 25-234): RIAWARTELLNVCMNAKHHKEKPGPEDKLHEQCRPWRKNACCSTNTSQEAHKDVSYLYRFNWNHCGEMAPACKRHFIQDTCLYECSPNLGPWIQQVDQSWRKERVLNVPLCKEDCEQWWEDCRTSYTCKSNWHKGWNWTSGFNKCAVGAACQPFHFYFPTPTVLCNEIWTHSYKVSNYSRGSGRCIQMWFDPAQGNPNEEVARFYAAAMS

[9] = biological target: T5, murine FOLR1 (antigen of the Octet assay) (murine, UniProt P35846 25-232, limits assumed); test: BLI (Octet), tetramer captured on AHC sensor, antigen as analyte
T5 construct: also called mFOLR1
T5 sequence (P35846 25-232 limits assumed): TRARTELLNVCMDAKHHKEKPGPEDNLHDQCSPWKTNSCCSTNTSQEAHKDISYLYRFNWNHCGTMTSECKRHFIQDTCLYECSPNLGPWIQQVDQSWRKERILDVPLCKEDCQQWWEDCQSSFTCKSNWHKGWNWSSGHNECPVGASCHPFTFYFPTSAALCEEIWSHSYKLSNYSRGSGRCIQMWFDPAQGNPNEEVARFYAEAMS

[10] = biological target: T6, human FOLR1 (antigen of the Octet assay) (human, UniProt P15328 25-234, limits assumed); test: as above
T6 construct: also called hFOLR1
T6 sequence (P15328 25-234 limits assumed): as the sequence (P15328 25-234) above

[11] = biological target: T7, human DLL3 (antigen of Example 30) (human, UniProt Q9NYJ7 27-492, limits assumed); test: as above
T7 construct: also called hDLL3
T7 sequence (looked up): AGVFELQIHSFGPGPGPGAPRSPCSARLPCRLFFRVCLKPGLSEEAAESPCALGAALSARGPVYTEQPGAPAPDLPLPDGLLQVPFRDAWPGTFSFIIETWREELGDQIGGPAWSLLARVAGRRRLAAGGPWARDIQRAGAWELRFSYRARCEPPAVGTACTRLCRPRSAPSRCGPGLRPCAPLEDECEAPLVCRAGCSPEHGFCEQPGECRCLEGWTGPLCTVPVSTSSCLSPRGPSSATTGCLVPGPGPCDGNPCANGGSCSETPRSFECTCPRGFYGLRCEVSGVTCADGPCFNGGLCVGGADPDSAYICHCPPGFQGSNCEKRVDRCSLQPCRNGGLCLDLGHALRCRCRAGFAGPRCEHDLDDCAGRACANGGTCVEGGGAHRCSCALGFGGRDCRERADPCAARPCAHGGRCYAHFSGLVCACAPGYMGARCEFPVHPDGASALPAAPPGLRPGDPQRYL

Binder | binding result [1] | binding result [2] | binding result [3] | binding result [4] | Kd [5] | Kd [6] | Kd [7] | binding result [8] | binding result [9] | binding result [10] | binding result [11]
B1 | no binding | no binding | no binding | no binding | 1200 nM | – | – | – | – | – | –
B2 | no binding | no binding | no binding | – | 460 nM | 1100 nM | 1.9 nM | – | – | – | –
B3 | – | no binding | no binding | – | 520 nM | 770 nM | – | – | – | – | –
B4 | no binding | no binding | no binding | – | 570 nM | 2200 nM | – | – | – | – | –
B5 | no binding | no binding | no binding | no binding | 1200 nM | – | – | – | – | – | –
B6 | – | – | – | – | – | – | – | binds | binds | binds | binds
B7 | – | – | – | – | – | – | – | binds | binds | binds | binds

From patent publication US20260137822A1 (ABDERA THERAPEUTICS, published 2026)
